Biological target: Flag-DNAJC5 (secreted) (UniProt Q9H3Z4)
Test: co-IP; conditioned medium of cells expressing Flag-DNAJC5 and HA-GFP1-10; Flag beads against control Sepharose beads; precipitated and unbound fractions analysed by immunoblotting

Sequence of UniProt Q9H3Z4 (Q9H3Z4 whole entry): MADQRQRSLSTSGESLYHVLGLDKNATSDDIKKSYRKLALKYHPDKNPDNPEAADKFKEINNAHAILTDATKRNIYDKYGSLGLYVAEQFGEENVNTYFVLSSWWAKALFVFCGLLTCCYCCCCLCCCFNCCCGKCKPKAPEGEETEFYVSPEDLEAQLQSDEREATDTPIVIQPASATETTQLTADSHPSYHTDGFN

percent co-depleted with Flag-DNAJC5: > 60%
Substance: HA-GFP1-10 (secreted) (domain or fragment)

From PMC5838229
